# Reference: patent publication US20040081651A1 (Biogen, published 2004)
# Columns and labels:
# [1] = target: T1, human VLA-1 (α1β1 integrin) on K562 cells transfected with the α1 integrin subunit (human, UniProt P56199 29-1179; P05556 21-798); assay: FACS on human α1-transfected K562 cells
# T1 construct: whole, on cells; also called huVLA-1; K562-α1
# [2] = target: T2, human α1-I domain-GST fusion protein (human, UniProt P56199 151-364); assay: ELISA on immobilized α1 I domain-GST (±0.058 in r14)
# T2 construct: Expressed in E. coli; not shown: glutathione S-transferase of vector pGEX4t-i (Pharmacia), with a thrombin cleavage site at the junction
# [3] = target: T2, human α1-I domain-GST fusion protein; assay: ELISA; competition with biotinylated mAQC2 (competitor) for immobilized α1 I domain-GST
# [4] = target: T2, human α1-I domain-GST fusion protein; assay: electrochemiluminescence; inhibition of α1 I domain-GST binding to type IV collagen beads (±0.007 in r14)
# [5] = target: T3, α1β1 integrin (VLA-1) in lysate of α1-transfected K562 cells (human, UniProt P56199 29-1179; P05556 21-798); assay: electrochemiluminescence; inhibition of α1β1 (K562-α1 lysate) binding to type IV collagen beads (±0.002 in r14)
# [6] = target: T1, human VLA-1 (α1β1 integrin) on K562 …; assay: FACS of VLA-1-expressing K562α1 cells stained with conditioned medium of transfected 293-EBNA cells; mean MFI normalized to chAQC2 blocked; average of two transfections
# [7] = target: T2, human α1-I domain-GST fusion protein; assay: ELISA on immobilized α1 I domain-GST (±0.015 in r12)
# [8] = target: T2, human α1-I domain-GST fusion protein; assay: electrochemiluminescence; inhibition of α1 I domain-GST binding to type IV collagen beads (±0.011 in r12)
# [9] = target: T3, α1β1 integrin (VLA-1) in lysate of …; assay: electrochemiluminescence; inhibition of α1β1 (K562-α1 lysate) binding to type IV collagen beads (±0.014 in r12)
EC50 [1] [pM],EC50 [2] [pM],IC50 [3] [pM],IC50 [4] [pM],IC50 [5] [pM],Relative MFI [6],EC50 [7] [pM],IC50 [8] [pM],IC50 [9] [pM],Binder
250,176,30000,27,71,1 relative to chAQC2 blocked,,,,"chAQC2 (murine-human chimeric AQC2, blocked light chain; pAND099 + pAND102) (antibody, V domains shown, also called Chimera) VH: DVKVVESGGGLVKPGGSLKLACAASGFSFSRYTMSWVRQIPEKRLEWVATISGGGHTYYLDSVKGRFTISRDNAKNTLYLQMSSLRSEDTAMYYCTRGFGDGGYFDVWGQGTTVTVSS VL: QIVLTQFPALMSASPGEKVTMTCSASSSVNHMFWYQQKPKSSPKPWIYLTSNLASGVPARFSGSGSGTSYSLTISSMEAEDAATYYCQQWSGNPWTFGGGTKLEIK"
,,38000,,,,61,29,72.6,"monoclonal antibody AQC2 (mAQC2) (antibody, mouse IgG1, V domains shown, Hybridoma ATCC PTA3273; also called murine AQC2) VH: DVKVVESGGGLVKPGGSLKLACAASGFSFSRYTMSWVRQIPEKRLEWVATISGGGHTYYLDSVKGRFTISRDNAKNTLYLQMSSLRSEDTAMYYCTRGFGDGGYFDVWGQGTTVTVSS VL: QIVLTQFPALMSASPGEKVTMTCSASSSVNHMFWYQQKPKSSPKPWIYLTSNLASGVPARFSGSGSGTSYSLTISSMEAEDAATYYCQQWSGNPWTFGGGTKLEIK"
